Source: PMC4090420 (Biochemistry, 2013)

Target: 2F5 MAb (human)
Assay: ELISA

B1: 2F5–17 αIM (designed binder)
chain: VSDVPRDLEVVAATPTSLLISWPYDKWAYRYYRITYGETGGNSPVQEFTVPGSKSTATISGLKPGVDYTITVYAVTRWYWVPHYSKPISINYRT
modifications: biotin on the birA site
fold lower affinity than the MPER peptide: ~10 fold
